Results on two molecules are retold here after patent US20110110861A1 (WALTER AND ELIZA HALL INSTITUTE OF MEDICAL RESEARCH, published 2011).

For experiment [1], the target named is T1, mouse 5B6, full length, membrane bound on cells (mouse).
T1 construct: also called m5B6; mClec9A
T1 chain: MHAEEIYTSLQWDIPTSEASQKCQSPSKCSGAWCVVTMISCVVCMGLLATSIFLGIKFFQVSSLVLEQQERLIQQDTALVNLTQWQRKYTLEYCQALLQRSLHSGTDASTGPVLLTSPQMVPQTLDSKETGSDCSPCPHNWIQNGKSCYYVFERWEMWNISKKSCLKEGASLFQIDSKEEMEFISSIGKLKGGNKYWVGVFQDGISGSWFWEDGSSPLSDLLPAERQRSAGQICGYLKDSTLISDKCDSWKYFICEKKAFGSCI
Nature of the experiment: flow cytometry on live 293T cells transiently transfected with full length untagged m5B6. The method, then:
(§1) To identify binding partners for the 5B6 molecule, the inventors generated the soluble FLAG-tagged m5B6 and h5B6, and a control soluble FLAG-tagged C-type lectin Cire. […] Thus, soluble 5B6 can interact with membrane bound 5B6 in a cross-species manner.
(§2) Binding assays were performed in binding buffer (PBS containing 0.2% BSA/and 0.02% sodium azide), on ice. Cells were washed 3 times with PBS to remove serum proteins, then resuspended in binding buffer. Cells were incubated with either (1) biotinylated soluble Clec9A and controls, and detected with SA-PE, or (2) soluble FLAG-tagged Clec9A, biotinylated anti-FLAG mAb 9H10, then detected with SA-PE. Live cells were gated on forward and side scatter, or by propidium iodide (PI) exclusion, whereas dead cells were gated on forward and side scatter, or by PI inclusion. Analysis of soluble Clec9A binding was performed by flow cytometry using a FACScan (Becton Dickinson).
A general note: In flow cytometry, cells or beads pass a laser one at a time.

Experiment [2] has as its target T2, human 5B6, full length, membrane bound on cells (human, UniProt Q6UXN8 1-241).
T2 construct: also called h5B6; hCLEC9A
Put plainly: flow cytometry on live 293T cells transiently transfected with full length untagged h5B6. The method, then:
as §1, §2

T2 sequence (Q6UXN8 whole entry): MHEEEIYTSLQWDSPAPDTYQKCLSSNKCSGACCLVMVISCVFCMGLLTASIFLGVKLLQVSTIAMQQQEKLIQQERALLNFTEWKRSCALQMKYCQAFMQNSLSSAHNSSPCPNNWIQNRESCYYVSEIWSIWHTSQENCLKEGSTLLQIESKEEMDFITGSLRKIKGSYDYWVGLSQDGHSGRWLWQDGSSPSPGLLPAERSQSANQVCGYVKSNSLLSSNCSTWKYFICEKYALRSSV

B1: soluble FLAG-tagged mouse 5B6 (full ectodomain: stalk/hinge and CTLD) (receptor)
chain: ASISARQNSGLHHILDAQKMVWNHRGARQDYKDDDDKTREQQERLIQQDTALVNLTQWQRKYTLEYCQALLQRSLHSGTDASTGPVLLTSPQMVPQTLDSKETGSDCSPCPHNWIQNGKSCYYVFERWEMWNISKKSCLKEGASLFQIDSKEEMEFISSIGKLKGGNKYWVGVFQDGISGSWFWEDGSSPLSDLLPAERQRSAGQICGYLKDSTLISDKCDSWKYFICEKKAFGSCI
notes: also called soluble m5B6; soluble mouse 5B6
As for B1, the binding result in experiment [1] and in experiment [2] was “binds” throughout.

B2: soluble FLAG-tagged human 5B6 (full ectodomain: stalk/hinge and CTLD) (receptor)
chain: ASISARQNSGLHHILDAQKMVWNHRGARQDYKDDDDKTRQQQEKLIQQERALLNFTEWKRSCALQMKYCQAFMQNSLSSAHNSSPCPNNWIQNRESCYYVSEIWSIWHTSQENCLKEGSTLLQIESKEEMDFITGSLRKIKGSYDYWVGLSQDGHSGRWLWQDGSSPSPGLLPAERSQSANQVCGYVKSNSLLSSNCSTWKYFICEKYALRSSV
notes: Built like m1; also called soluble h5B6; soluble human 5B6
On to B2, for which the binding result in experiment [1] and in experiment [2] was “binds” in each case.
